The record followed here is the supplement of paper PMC5998384.

In series [1] the test system is HeLa Kyoto. In words: solubility change mitosis vs G1/S (difference of NP-40 vs SDS log2 ratios) (log2 ratio difference); higher = more soluble in mitosis.
The subject of series [2] is HeLa Kyoto. In words: melting temperature (median over replicates), in situ; higher = more thermally stable.
The test system of series [3] is HeLa Kyoto. Briefly: solubility in G1/S (NP-40 vs SDS abundance) (log2 ratio); higher = more soluble. To be noted: cell cycle stage: G1/S.
The test system of series [4] is HeLa Kyoto. In words: thermal stability score vs G1/S (z-score of summed log2 fold changes over temperatures); higher = more thermally stable than in G1/S.
Setting [5] is: cell cycle stage: early G1 (4.5 h after nocodazole release).
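For melting temperature (median over replicates), in situ in this document: HeLa Kyoto cells synchronized by double thymidine or nocodazole block, proteins quantified by TMT10plex mass spectrometry, three independent biological replicates.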
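For solubility change mitosis vs G1/S (difference of NP-40 vs SDS log2 ratios) in this document: synchronized HeLa Kyoto cells (double thymidine block for G1/S, nocodazole release for mitosis), protein amounts in NP-40 versus SDS lysates quantified by mass spectrometry, three biological replicates.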
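For solubility in G1/S (NP-40 vs SDS abundance) in this document: HeLa Kyoto cells arrested at G1/S by double thymidine block, proteins quantified by TMT10plex mass spectrometry in mild NP-40 versus SDS extracts, three biological replicates.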
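For thermal stability score vs G1/S (z-score of summed log2 fold changes over temperatures) in this document: synchronized HeLa Kyoto cells, proteins quantified by TMT10plex mass spectrometry, three biological replicates, mitosis taken 0.5 h after nocodazole release, G1/S directly after double thymidine block.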

With “MEDAGGGEETPAPEAPHPPQLAPPEEQGLLFQEETIDLGGDEFGSEENETASEGSSPLADKLNEHMMESVLISDSPNSEGDAGDLGRVRDEAEPGGEGDPGPEPAGTPSPSGEADGDCAPEDAAPSSGGAPRQDAAREVPGSEAARPEQEPPVAEPVPVCTIFSQRAPPASGDGFEPQMVKSPSFGGASEASARTPPQVVQPSPSLSTFFGDTAASHSLASDFFDSFTTSAFISVSNPGAGSPAPASPPPLAVPGTEGRPEPVAMRGPQAAAPPASPEPFAHIQAVFAGSDDPFATALSMSEMDRRNDAWLPGEATRGVLRAVATQQRGAVFVDKENLTMPGLRFDNIQGDAVKDLMLRFLGEKAAAKRQVLNADSVEQSFVGLKQLISCRNWRAAVDLCGRLLTAHGQGYGKSGLLTSHTTDSLQLWFVRLALLVKLGLFQNAEMEFEPFGNLDQPDLYYEYYPHVYPGRRGSMVPFSMRILHAELQQYLGNPQESLDRLHKVKTVCSKILANLEQGLAEDGGMSSVTQEGRQASIRLWRSRLGRVMYSMANCLLLMKDYVLAVEAYHSVIKYYPEQEPQLLSGIGRISLQIGDIKTAEKYFQDVEKVTQKLDGLQGKIMVLMNSAFLHLGQNNFAEAHRFFTEILRMDPRNAVANNNAAVCLLYLGKLKDSLRQLEAMVQQDPRHYLHESVLFNLTTMYELESSRSMQKKQALLEAVAGKEGDSFNTQCLKLA [TRAPPC12]”, the “solubility change mitosis (log2)” value in the series with HeLa Kyoto [1] is -0.258. Further, the melting temperature in the series with HeLa Kyoto [2] (cell cycle stage: G1/S) stood at 50.1 °C; with HeLa Kyoto [2] (cell cycle stage: mitosis) it was 49.2 °C. In addition, in the series on HeLa Kyoto [3], the “solubility in G1/S (log2)” value is 0.188. The thermal stability score in the series with HeLa Kyoto [4] (setting [5]) is 0.55; with HeLa Kyoto [4] (cell cycle stage: mitosis), 0.59.
Turning to “MEDLDQSPLVSSSDSPPRPQPAFKYQFVREPEDEEEEEEEEEEDEDEDLEELEVLERKPAAGLSAAPVPTAPAAGAPLMDFGNDFVPPAPRGPLPAAPPVAPERQPSWDPSPVSSTVPAPSPLSAAAVSPSKLPEDDEPPARPPPPPPASVSPQAEPVWTPPAPAPAAPPSTPAAPKRRGSSGSVDETLFALPAASEPVIRSSAENMDLKEQPGNTISAGQEDFPSVLLETAASLPSLSPLSAASFKEHEYLGNLSTVLPTEGTLQENVSEASKEVSEKAKTLLIDRDLTEFSELEYSEMGSSFSVSPKAESAVIVANPREEIIVKNKDEEEKLVSNNILHNQQELPTALTKLVKEDEVVSSEKAKDSFNEKRVAVEAPMREEYADFKPFERVWEVKDSKEDSDMLAAGGKIESNLESKVDKKCFADSLEQTNHEKDSESSNDDTSFPSTPEGIKDRSGAYITCAPFNPAATESIATNIFPLLGDPTSENKTDEKKIEEKKAQIVTEKNTSTKTSNPFLVAAQDSETDYVTTDNLTKVTEEVVANMPEGLTPDLVQEACESELNEVTGTKIAYETKMDLVQTSEVMQESLYPAAQLCPSFEESEATPSPVLPDIVMEAPLNSAVPSAGASVIQPSSSPLEASSVNYESIKHEPENPPPYEEAMSVSLKKVSGIKEEIKEPENINAALQETEAPYISIACDLIKETKLSAEPAPDFSDYSEMAKVEQPVPDHSELVEDSSPDSEPVDLFSDDSIPDVPQKQDETVMLVKESLTETSFESMIEYENKEKLSALPPEGGKPYLESFKLSLDNTKDTLLPDEVSTLSKKEKIPLQMEELSTAVYSNDDLFISKEAQIRETETFSDSSPIEIIDEFPTLISSKTDSFSKLAREYTDLEVSHKSEIANAPDGAGSLPCTELPHDLSLKNIQPKVEEKISFSDDFSKNGSATSKVLLLPPDVSALATQAEIESIVKPKVLVKEAEKKLPSDTEKEDRSPSAIFSAELSKTSVVDLLYWRDIKKTGVVFGASLFLLLSLTVFSIVSVTAYIALALLSVTISFRIYKGVIQAIQKSDEGHPFRAYLESEVAISEELVQKYSNSALGHVNCTIKELRRLFLVDDLVDSLKFAVLMWVFTYVGALFNGLTLLILALISLFSVPVIYERHQAQIDHYLGLANKNVKDAMAKIQAKIPGLKRKAE [RTN4]”, the “solubility change mitosis (log2)” value in the series on HeLa Kyoto [1] was -0.155. The melting temperature in the series on HeLa Kyoto [2] (cell cycle stage: G1/S) came out at 56.6 °C; with HeLa Kyoto [2] (cell cycle stage: mitosis), 56.7 °C. Further, the “solubility in G1/S (log2)” value with HeLa Kyoto [3] was -0.0792. The thermal stability score in the series with HeLa Kyoto [4] (setting [5]) was -0.746; with HeLa Kyoto [4] (cell cycle stage: mitosis), -1.43.
Consider “MEDYLQGCRAALQESRPLHVVLGNEACDLDSTVSALALAFYLAKTTEAEEVFVPVLNIKRSELPLRGDIVFFLQKVHIPESILIFRDEIDLHALYQAGQLTLILVDHHILSKSDTALEEAVAEVLDHRPIEPKHCPPCHVSVELVGSCATLVTERILQGAPEILDRQTAALLHGTIILDCVNMDLKIGKATPKDSKYVEKLEALFPDLPKRNDIFDSLQKAKFDVSGLTTEQMLRKDQKTIYRQGVKVAISAIYMDLEAFLQRSNLLADLHAFCQAHSYDVLVAMTIFFNTHNEPVRQLAIFCPHVALQTTICEVLERSHSPPLKLTPASSTHPNLHAYLQGNTQVSRKKLLPLLQEALSAYFDSMKIPSGQPETADVSREQVDKELDRASNSLISGLSQDEEDPPLPPTPMNSLVDECPLDQGLPKLSAEAVFEKCSQISLSQSTTASLSKK [PRUNE]”, for which the “solubility change mitosis (log2)” value in the series with HeLa Kyoto [1] is -0.0758. Also, the melting temperature in the series on HeLa Kyoto [2] (cell cycle stage: G1/S) is 50.3 °C; in the series on HeLa Kyoto [2] (cell cycle stage: mitosis), 49.6 °C. Moreover, in the series with HeLa Kyoto [3], the “solubility in G1/S (log2)” value stood at 0.182. For the same sequence, the results for the thermal stability score in the series with HeLa Kyoto [4] (setting [5]) and in the series with HeLa Kyoto [4] (cell cycle stage: mitosis) were 0.764 and 0.775, respectively.
As for “MEEAELVKGRLQAITDKRKIQEEISQKRLKIEEDKLKHQHLKKKALREKWLLDGISSGKEQEEMKKQNQQDQHQIQVLEQSILRLEKEIQDLEKAELQISTKEEAILKKLKSIERTTEDIIRSVKVEREERAEESIEDIYANIPDLPKSYIPSRLRKEINEEKEDDEQNRKALYAMEIKVEKDLKTGESTVLSSIPLPSDDFKGTGIKVYDDGQKSVYAVSSNHSAAYNGTDGLAPVEVEELLRQASERNSKSPTEYHEPVYANPFYRPTTPQRETVTPGPNFQERIKIKTNGLGIGVNESIHNMGNGLSEERGNNFNHISPIPPVPHPRSVIQQAEEKLHTPQKRLMTPWEESNVMQDKDAPSPKPRLSPRETIFGKSEHQNSSPTCQEDEEDVRYNIVHSLPPDINDTEPVTMIFMGYQQAEDSEEDKKFLTGYDGIIHAELVVIDDEEEEDEGEAEKPSYHPIAPHSQVYQPAKPTPLPRKRSEASPHENTNHKSPHKNSISLKEQEESLGSPVHHSPFDAQTTGDGTEDPSLTALRMRMAKLGKKVI [PALMD]”, in the series with HeLa Kyoto [1], the “solubility change mitosis (log2)” value stood at 0.124. The results for the melting temperature with HeLa Kyoto [2] (cell cycle stage: G1/S) and in the series on HeLa Kyoto [2] (cell cycle stage: mitosis) were 53.2 °C and 53.1 °C, respectively. The “solubility in G1/S (log2)” value in the series with HeLa Kyoto [3] stood at 0.412. Further, the thermal stability score in the series with HeLa Kyoto [4] (setting [5]) was -0.598; in the series on HeLa Kyoto [4] (cell cycle stage: mitosis), 0.967.
